Results reported in IntAct's records for PubMed 26656091.

B1: Adapter molecule crk (Homo sapiens), P46108-1 (parent)
chain: MAGNFDSEERSSWYWGRLSRQEAVALLQGQRHGVFLVRDSSTSPGDYVLSVSENSRVSHYIINSSGPRPPVPPSPAQPPPGVSPSRLRIGDQEFDSLPALLEFYKIHYLDTTTLIEPVSRSRQGSGVILRQEEAEYVRALFDFNGNDEEDLPFKKGDILRIRDKPEEQWWNAEDSEGKRGMIPVPYVEKYRPASASVSALIGGNQEGSHPQPLGGPEPGPYAQPSVNTPLPNLQNGPIYARVIQKRVPNAYDKTALALEVGELVKVTKINVSGQWEGECNGKRGHFPFTHVRLLDQQNPDEDFS

Variants of: B1
Conditions: with ppia_human PPIA

Question: P220A was tested. Which “effect of a mutation on the interaction” value did it give?
Answer: Its value is “disrupting interaction strength”.

Variants of: B1
Conditions: with ppia_human PPIA
Remark: another data set of the same source

Question: P218F was tested. Which “effect of a mutation on the interaction” value did it give?
Answer: Its value is “increasing interaction strength”.
